Assay results published in the supplement of paper PMC7877785.
± gives the uncertainty stated by the source.

Assay: self-splicing fitness, log relative to wild type (ln ratio); higher = more splicing; Tetrahymena group I intron in knt gene, E. coli kanamycin selection, DiMSum; sequences stand for … in CUCUCU…GGAGGGAAAAGUUAUCAGGCAUGCACCUGGUAGCUAGUCUUUAAACCAAUAGAUUGCAUCGGUUUAAAAGGCAAGACCGUCAAAUUGCGGGAAAGGGGUCAACAGCCGUUCAGUACCAAGUCUCAGGGGAAACUUUGAGAUGGCCUUGCAAAGGGUAUGGUAAUAAGCUGACGGACAUGGUCCUAACCACGCAGCCAAGUCCUAAGUCAACAGAUCUUCUGUUGAUAUGGAUGCAGUUCACAGACUAAAUGUCGGUCGGGGAAGAUGUAUUCUUCUCAUAAGAUAUAGUCGGACCUCUCCUUAAUGGGAGCUAGCGGAUGAAGUGAUGCAACACUGGAGCCGCUGGGAACUAAUUUGUAUGCGAAAGUAUAUUGAUUAGUUUUGGAGUACUCGUGGUCG
Summary of the method: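 Six replicate transformations of E. coli BL21(DE3) with a pET-22b(+) library were grown overnight at 37°C or 30°C. The library randomised all eight P1ex-region intron nucleotides, the intron lying in the knt kanamycin-resistance gene, and plates were LB agar with or without 25 μg/mL kanamycin plus 100 μg/mL carbenicillin, 50 μM IPTG and 0.2% rhamnose. Pooled colonies were amplicon-sequenced on an Illumina HiSeq 2500, and fitness is the DiMSum error-weighted combination of wild-type-normalised replicate fold changes, kanamycin versus none.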

Sequence	self-splicing fitness (ln) (30 °C)	self-splicing fitness (ln) (37 °C)
GACAAGCAAUAUUACGUUCU	-2.9 ± 0.13	-1.45 ± 0.12
AGCUAGCAAUAUUACGCGUA	-3.08 ± 0.26	-0.709 ± 0.18
CGGGAGCAAUAUUACGCGCA		-0.737 ± 0.49
GCACAGCAAUAUUACGAAAG	-3.79 ± 0.15	-1.91 ± 0.11
ACCAAGCAAUAUUACGAGAU	-3.84 ± 0.13	-2.65 ± 0.16
AACUAGCAAUAUUACGGAAG	-2.57 ± 0.13	-1.49 ± 0.12
UGUUAGCAAUAUUACGUGAA	-2.38 ± 0.16	-1.07 ± 0.13
AGAGAGCAAUAUUACGGAUU	-2.87 ± 0.2	-2.57 ± 0.34
CAGAAGCAAUAUUACGGUUG	-1.2 ± 0.069	-1.08 ± 0.098
GUUGAGCAAUAUUACGCAAA	-2.73 ± 0.35	-0.984 ± 0.14
GCUUAGCAAUAUUACGGCGU	-0.354 ± 0.1	-0.748 ± 0.11
GGUUAGCAAUAUUACGCCGU	-1.91 ± 0.22	-1.03 ± 0.21
CUACAGCAAUAUUACGCUGC	-2.88 ± 0.22	-1.77 ± 0.35
AGUUAGCAAUAUUACGCGUG	-2.38 ± 0.2	-0.946 ± 0.17
AAGCAGCAAUAUUACGGCAC	-0.574 ± 0.072	-0.149 ± 0.098
UAAGAGCAAUAUUACGACUA	-0.436 ± 0.11	0.314 ± 0.11
GACAAGCAAUAUUACGAUCC	-2.7 ± 0.22	-2.08 ± 0.34
UAUGAGCAAUAUUACGGGAC		-1.11 ± 0.17
CCACAGCAAUAUUACGACAG	-1.06 ± 0.083	-0.0398 ± 0.088
AGACAGCAAUAUUACGGCAG	-3.3 ± 0.15	-1.09 ± 0.12
AUCGAGCAAUAUUACGCCAU	-2.34 ± 0.31	-2.79 ± 0.3
GACCAGCAAUAUUACGGCGA	-0.195 ± 0.075	0.13 ± 0.11
AACAAGCAAUAUUACGUGGG	-2.93 ± 0.12	-2.95 ± 0.13
GCCGAGCAAUAUUACGCGCG	-2.53 ± 0.25	
AAACAGCAAUAUUACGUCCU	-0.281 ± 0.07	0.347 ± 0.094

Sequence	self-splicing fitness (ln) (30 °C)	self-splicing fitness (ln) (37 °C)
CGCUAGCAAUAUUACGAGAG	-3.41 ± 0.24	-2.81 ± 0.38
ACUUAGCAAUAUUACGUUCA	-0.344 ± 0.19	-0.694 ± 0.2
UGAAAGCAAUAUUACGACAG	-0.875 ± 0.1	-0.652 ± 0.13
CUCGAGCAAUAUUACGGUCG	-3.59 ± 0.28	-2.38 ± 0.34
CAUAAGCAAUAUUACGGACU	-3.64 ± 0.18	-2.97 ± 0.23
AGGUAGCAAUAUUACGGGGU	-3.984 ± 0.027	-2.94 ± 0.038
UAUAAGCAAUAUUACGAUUU	-1.43 ± 0.091	-0.65 ± 0.1
AGGGAGCAAUAUUACGUCAA	-3.37 ± 0.44	-2.52 ± 0.45
CGAAAGCAAUAUUACGCUUA	-2.25 ± 0.16	-1.24 ± 0.14
UUGGAGCAAUAUUACGGACG	-3.11 ± 0.32	-1.04 ± 0.34
UGUGAGCAAUAUUACGCAGC		-1.77 ± 0.4
GGUAAGCAAUAUUACGGCGG	-2.55 ± 0.24	-0.84 ± 0.18
AGGGAGCAAUAUUACGGAUU	-4.58 ± 0.38	-2.67 ± 0.31
GACCAGCAAUAUUACGGUUC	-5.29 ± 0.25	-2.73 ± 0.14
AACGAGCAAUAUUACGUGUG	-3.18 ± 0.13	-2.57 ± 0.14
CUGGAGCAAUAUUACGGAAC	-3.5 ± 0.33	-2.64 ± 0.3
AAGGAGCAAUAUUACGAUAU	-3.03 ± 0.32	-2.37 ± 0.45
CAGUAGCAAUAUUACGCUGA	-2.07 ± 0.24	-1.95 ± 0.3
GACAAGCAAUAUUACGCGUG	-2.54 ± 0.076	-0.344 ± 0.071
ACGCAGCAAUAUUACGCUUC	-2.75 ± 0.26	-2.48 ± 0.22
UGGUAGCAAUAUUACGGCCA	-2.07 ± 0.3	-1.94 ± 0.45
GACCAGCAAUAUUACGCCCA	-0.923 ± 0.16	0.179 ± 0.19
CCCAAGCAAUAUUACGGACA	-3.25 ± 0.27	-2.07 ± 0.14
CCUGAGCAAUAUUACGGAUC	-2.1 ± 0.17	-2.53 ± 0.22
